Data: the supplement of paper PMC10065799, “High-throughput profiling of sequence recognition by tyrosine kinases and SH2 domains using bacterial peptide display” (eLife, 2023)

Each sequence was assayed against Hck (UniProt P08631) (assay: phosphorylation enrichment, bacterial display (enrichment ratio); higher = better substrate or ligand; peptides without Tyr show the background).
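Note: 11-residue human phosphosite peptides and single-mutation variants displayed on the E. coli surface, counted by deep sequencing, each peptide's frequency after selection divided by its frequency in the unselected input library; frequency after pTyr selection over input frequency; kinase dosed for 20-30% of maximal phosphorylation in three min.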

Hck, sequence (P08631 whole entry, looked up): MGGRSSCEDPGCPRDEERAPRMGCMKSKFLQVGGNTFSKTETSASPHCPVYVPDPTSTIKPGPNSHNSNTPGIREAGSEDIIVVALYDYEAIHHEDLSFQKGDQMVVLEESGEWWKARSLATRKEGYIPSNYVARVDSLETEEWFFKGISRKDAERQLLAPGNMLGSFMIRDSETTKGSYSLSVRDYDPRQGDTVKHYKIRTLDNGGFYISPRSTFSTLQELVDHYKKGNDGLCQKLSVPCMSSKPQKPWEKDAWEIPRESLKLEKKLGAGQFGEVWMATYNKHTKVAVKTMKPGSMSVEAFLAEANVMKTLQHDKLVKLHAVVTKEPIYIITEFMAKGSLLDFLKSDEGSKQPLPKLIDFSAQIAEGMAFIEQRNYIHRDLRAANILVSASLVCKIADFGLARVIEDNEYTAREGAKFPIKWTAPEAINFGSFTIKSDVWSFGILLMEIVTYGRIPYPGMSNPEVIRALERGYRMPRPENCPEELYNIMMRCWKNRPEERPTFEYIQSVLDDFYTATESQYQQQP

| Sequence | phosphorylation enrichment |
| --- | --- |
| SLNEGYARDFD [FBP1_Y216] | 0.547 |
| SYPREYGSQEG [RBM10_Y48] | 0.477 |
| CSRCFYQLTKL [AR_Y858_R856C] | 0.362 |
| SSAAGYACLAY [MVD_Y131] | 0.575 |
| QNTADYFDLFG [PTPN11_Y62_G60A_YF] | 0.722 |
| DNAFQYMLTDR [MYH7_Y164_YF] | 0.494 |
| GDFLSYREFHL [ERBIN_Y1107_S1112L_YF] | 0.653 |
| VGTTAYVAPEA [IRAK4_Y354_M355V] | 0.41 |
| IEEGTYGVVFR [CDK11B_Y449_YF] | 7.46 |
| PQGVGYPQQQQ [EP300_Y2219_P2221Q] | 0.546 |
| GIVEDYRPPVY [ACVRL1_Y421_F425V] | 0.505 |
| VTSLKYSTSPY [BRIP1_Y916] | 0.516 |
| CTTIHYNYMCK [TP53_Y234_N239K] | 0.473 |
| RSGIYYKPESL [L2HGDH_Y103_H98R] | 4.86 |
| LEISPYMLSGP [LRRK2_Y1718_R1723P] | 1.1 |
| QLFGAYLRIHA [BSCL2_Y213_YF] | 1.02 |
| CDIARYIVSQL [MAST2_Y461_P459A] | 0.559 |

| Sequence | phosphorylation enrichment |
| --- | --- |
| GNLLIYTELGK [HGD_Y166_F169L] | 5.3 |
| KRAIGYFSATS [FAM120A_Y327_YF] | 0.492 |
| KTVQDYLKKFF [MMP8_Y36_E38K_YF] | 0.494 |
| YEKFLYFLPAS [DYNC2H1_Y346_H341Y] | 0.827 |
| VPVNGYQPVPA [ROR2_Y824] | 0.422 |
| CIILLYIFLKN [STXBP1_Y411_R406C] | 0.465 |
| TNRSVYFKPSL [NUP153_Y382] | 0.551 |
| GHPYAYDWISI [BEST1_Y227_L224P] | 1.62 |
| STFVPYEIKVQ [L1CAM_Y784] | 0.475 |
| FRQNVYIPGSN [PCDHGA1_Y895_YF] | 0.442 |
| QEALEYFMKQI [PIK3CA_Y1038_M1043I] | 0.631 |
| QKNVSYVSRVS [TASOR_Y1043_T1046R] | 0.477 |
| TFGQVYKGRHV [TNIK_Y40_YF] | 0.406 |
| IMVFVYCRVFQ [ADRB2_Y219_S220C] | 0.473 |
| REGKIYEYNQV [ZNF665_Y162_H157R] | 1.12 |
| NTGGFYDLFGG [PTPN11_Y63_D61G_YF] | 5.68 |

These sequences were tested on c-Src in the same assay as above.

| Sequence | phosphorylation enrichment |
| --- | --- |
| SLNEGYARDFD [FBP1_Y216] | 0.44 |
| SYPREYGSQEG [RBM10_Y48] | 0.413 |
| CSRCFYQLTKL [AR_Y858_R856C] | 1.14 |
| SSAAGYACLAY [MVD_Y131] | 0.593 |
| QNTADYFDLFG [PTPN11_Y62_G60A_YF] | 0.693 |
| DNAFQYMLTDR [MYH7_Y164_YF] | 0.543 |
| GDFLSYREFHL [ERBIN_Y1107_S1112L_YF] | 0.543 |
| VGTTAYVAPEA [IRAK4_Y354_M355V] | 0.433 |
| IEEGTYGVVFR [CDK11B_Y449_YF] | 5.94 |
| PQGVGYPQQQQ [EP300_Y2219_P2221Q] | 0.475 |
| GIVEDYRPPVY [ACVRL1_Y421_F425V] | 0.437 |
| VTSLKYSTSPY [BRIP1_Y916] | 0.542 |
| CTTIHYNYMCK [TP53_Y234_N239K] | 0.371 |
| RSGIYYKPESL [L2HGDH_Y103_H98R] | 2.6 |
| LEISPYMLSGP [LRRK2_Y1718_R1723P] | 3.58 |
| QLFGAYLRIHA [BSCL2_Y213_YF] | 0.559 |
| CDIARYIVSQL [MAST2_Y461_P459A] | 0.478 |

| Sequence | phosphorylation enrichment |
| --- | --- |
| GNLLIYTELGK [HGD_Y166_F169L] | 4.74 |
| KRAIGYFSATS [FAM120A_Y327_YF] | 0.364 |
| KTVQDYLKKFF [MMP8_Y36_E38K_YF] | 0.488 |
| YEKFLYFLPAS [DYNC2H1_Y346_H341Y] | 0.938 |
| VPVNGYQPVPA [ROR2_Y824] | 0.413 |
| CIILLYIFLKN [STXBP1_Y411_R406C] | 0.37 |
| TNRSVYFKPSL [NUP153_Y382] | 0.511 |
| GHPYAYDWISI [BEST1_Y227_L224P] | 1.55 |
| STFVPYEIKVQ [L1CAM_Y784] | 0.393 |
| FRQNVYIPGSN [PCDHGA1_Y895_YF] | 0.435 |
| QEALEYFMKQI [PIK3CA_Y1038_M1043I] | 0.714 |
| QKNVSYVSRVS [TASOR_Y1043_T1046R] | 0.457 |
| TFGQVYKGRHV [TNIK_Y40_YF] | 0.437 |
| IMVFVYCRVFQ [ADRB2_Y219_S220C] | 0.395 |
| REGKIYEYNQV [ZNF665_Y162_H157R] | 1.19 |
| NTGGFYDLFGG [PTPN11_Y63_D61G_YF] | 4.17 |

The sequences below were run on AncSZ in the same assay as above.

| Sequence | phosphorylation enrichment |
| --- | --- |
| SLNEGYARDFD [FBP1_Y216] | 1.06 |
| SYPREYGSQEG [RBM10_Y48] | 0.756 |
| CSRCFYQLTKL [AR_Y858_R856C] | 0.864 |
| SSAAGYACLAY [MVD_Y131] | 0.9 |
| QNTADYFDLFG [PTPN11_Y62_G60A_YF] | 5.82 |
| DNAFQYMLTDR [MYH7_Y164_YF] | 0.955 |
| GDFLSYREFHL [ERBIN_Y1107_S1112L_YF] | 0.915 |
| VGTTAYVAPEA [IRAK4_Y354_M355V] | 0.888 |
| IEEGTYGVVFR [CDK11B_Y449_YF] | 1.41 |
| PQGVGYPQQQQ [EP300_Y2219_P2221Q] | 0.87 |
| GIVEDYRPPVY [ACVRL1_Y421_F425V] | 0.817 |
| VTSLKYSTSPY [BRIP1_Y916] | 0.751 |
| CTTIHYNYMCK [TP53_Y234_N239K] | 0.736 |
| RSGIYYKPESL [L2HGDH_Y103_H98R] | 1.17 |
| LEISPYMLSGP [LRRK2_Y1718_R1723P] | 1.53 |
| QLFGAYLRIHA [BSCL2_Y213_YF] | 1.49 |
| CDIARYIVSQL [MAST2_Y461_P459A] | 0.919 |

| Sequence | phosphorylation enrichment |
| --- | --- |
| GNLLIYTELGK [HGD_Y166_F169L] | 1.46 |
| KRAIGYFSATS [FAM120A_Y327_YF] | 0.543 |
| KTVQDYLKKFF [MMP8_Y36_E38K_YF] | 1.07 |
| YEKFLYFLPAS [DYNC2H1_Y346_H341Y] | 1.5 |
| VPVNGYQPVPA [ROR2_Y824] | 0.859 |
| CIILLYIFLKN [STXBP1_Y411_R406C] | 0.676 |
| TNRSVYFKPSL [NUP153_Y382] | 0.667 |
| GHPYAYDWISI [BEST1_Y227_L224P] | 1.47 |
| STFVPYEIKVQ [L1CAM_Y784] | 0.906 |
| FRQNVYIPGSN [PCDHGA1_Y895_YF] | 0.576 |
| QEALEYFMKQI [PIK3CA_Y1038_M1043I] | 1.68 |
| QKNVSYVSRVS [TASOR_Y1043_T1046R] | 1.2 |
| TFGQVYKGRHV [TNIK_Y40_YF] | 0.524 |
| IMVFVYCRVFQ [ADRB2_Y219_S220C] | 0.729 |
| REGKIYEYNQV [ZNF665_Y162_H157R] | 0.799 |
| NTGGFYDLFGG [PTPN11_Y63_D61G_YF] | 1.05 |

What follows are sequences tested against FGFR1 (UniProt P11362) in the same assay as above.
FGFR1, sequence (P11362 whole entry, looked up): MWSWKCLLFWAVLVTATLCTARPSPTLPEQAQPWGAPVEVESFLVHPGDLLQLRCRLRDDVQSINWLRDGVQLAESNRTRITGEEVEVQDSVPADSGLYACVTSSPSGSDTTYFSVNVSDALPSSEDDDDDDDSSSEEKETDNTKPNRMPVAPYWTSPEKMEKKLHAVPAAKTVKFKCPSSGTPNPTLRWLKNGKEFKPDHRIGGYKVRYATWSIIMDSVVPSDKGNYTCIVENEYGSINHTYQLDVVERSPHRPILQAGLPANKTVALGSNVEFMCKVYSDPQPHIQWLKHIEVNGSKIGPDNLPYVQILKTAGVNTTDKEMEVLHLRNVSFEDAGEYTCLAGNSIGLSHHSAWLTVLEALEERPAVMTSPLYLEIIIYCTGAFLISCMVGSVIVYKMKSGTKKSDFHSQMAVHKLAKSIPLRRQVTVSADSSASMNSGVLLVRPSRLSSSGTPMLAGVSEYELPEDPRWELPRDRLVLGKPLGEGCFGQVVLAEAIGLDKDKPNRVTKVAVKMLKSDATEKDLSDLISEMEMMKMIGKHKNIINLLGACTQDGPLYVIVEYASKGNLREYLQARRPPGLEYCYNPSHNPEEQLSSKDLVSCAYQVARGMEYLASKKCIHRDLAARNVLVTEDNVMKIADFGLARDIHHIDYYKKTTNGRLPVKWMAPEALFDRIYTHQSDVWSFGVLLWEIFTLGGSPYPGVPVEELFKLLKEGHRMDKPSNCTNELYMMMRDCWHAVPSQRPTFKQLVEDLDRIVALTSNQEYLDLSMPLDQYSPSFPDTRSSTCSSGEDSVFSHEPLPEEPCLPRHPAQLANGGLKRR

| Sequence | phosphorylation enrichment |
| --- | --- |
| SLNEGYARDFD [FBP1_Y216] | 0.461 |
| SYPREYGSQEG [RBM10_Y48] | 0.47 |
| CSRCFYQLTKL [AR_Y858_R856C] | 0.601 |
| SSAAGYACLAY [MVD_Y131] | 0.547 |
| QNTADYFDLFG [PTPN11_Y62_G60A_YF] | 17.9 |
| DNAFQYMLTDR [MYH7_Y164_YF] | 0.461 |
| GDFLSYREFHL [ERBIN_Y1107_S1112L_YF] | 0.501 |
| VGTTAYVAPEA [IRAK4_Y354_M355V] | 0.412 |
| IEEGTYGVVFR [CDK11B_Y449_YF] | 0.548 |
| PQGVGYPQQQQ [EP300_Y2219_P2221Q] | 0.448 |
| GIVEDYRPPVY [ACVRL1_Y421_F425V] | 0.458 |
| VTSLKYSTSPY [BRIP1_Y916] | 0.487 |
| CTTIHYNYMCK [TP53_Y234_N239K] | 0.547 |
| RSGIYYKPESL [L2HGDH_Y103_H98R] | 5.07 |
| LEISPYMLSGP [LRRK2_Y1718_R1723P] | 0.921 |
| QLFGAYLRIHA [BSCL2_Y213_YF] | 0.928 |
| CDIARYIVSQL [MAST2_Y461_P459A] | 0.553 |

| Sequence | phosphorylation enrichment |
| --- | --- |
| GNLLIYTELGK [HGD_Y166_F169L] | 1.29 |
| KRAIGYFSATS [FAM120A_Y327_YF] | 0.381 |
| KTVQDYLKKFF [MMP8_Y36_E38K_YF] | 0.523 |
| YEKFLYFLPAS [DYNC2H1_Y346_H341Y] | 0.57 |
| VPVNGYQPVPA [ROR2_Y824] | 0.55 |
| CIILLYIFLKN [STXBP1_Y411_R406C] | 0.392 |
| TNRSVYFKPSL [NUP153_Y382] | 0.448 |
| GHPYAYDWISI [BEST1_Y227_L224P] | 10.1 |
| STFVPYEIKVQ [L1CAM_Y784] | 0.506 |
| FRQNVYIPGSN [PCDHGA1_Y895_YF] | 0.416 |
| QEALEYFMKQI [PIK3CA_Y1038_M1043I] | 0.616 |
| QKNVSYVSRVS [TASOR_Y1043_T1046R] | 0.782 |
| TFGQVYKGRHV [TNIK_Y40_YF] | 0.347 |
| IMVFVYCRVFQ [ADRB2_Y219_S220C] | 0.841 |
| REGKIYEYNQV [ZNF665_Y162_H157R] | 0.707 |
| NTGGFYDLFGG [PTPN11_Y63_D61G_YF] | 0.478 |
